Assay [1] relates to WT and Δspy1542 mutant strains. Kind of assay: FACS analysis of LL-37 localised on the bacterial surface. The class given is cell-based, Streptococcus pyogenes. The conditions noted are these: 0.8 μM LL-37; WT versus Δspy1542 mutant; 5 or 10 min at 37° C. On the procedure:
An experiment was carried out to see if LL-37 bound to the surface of the bacteria. 0.8 μM LL-37 was added to the bacteria in a method similar to that for the bacterial killing assay. The amount of LL-37 localised on the bacterial surface was then compared for WT and Δspy1542 mutant strains by FACS analysis. […] This “protective” effect also increases with time. The WT strains therefore appear to be shielded against LL-37.

Assay [2] concerns ΔcrgR mutant of GAS strain SF370. Format: cell-based, Streptococcus pyogenes. The conditions noted are these: 1 hour at 37° C., ~10^6 cfu. On the procedure: (§1) The mutant was obtained using allelic exchange gene replacement mutagenesis. Positive clones were confirmed by PCR and used for further experiments. Quantitative real time PCR confirmed the absence of crgR mRNA in the mutant. ΔcrgR mutant cathelicidin resistance was tested in a bacterial killing assay. Bacteria were grown in THB to OD600 0.2 and diluted in […] Tris-HCl, pH7.5, containing 5 mM glucose. 1 ml of bacteria (˜10^6 cfu) were incubated together with different concentrations of cathelicidins for 1 hour at 37° C. with no agitation. The bactericidal activity was assessed by plating serial dilutions of the incubation mixtures on THY-blood agar.

The test system of a further assay is GAS strain SF370 WT. Format: cell-based, Streptococcus pyogenes. The following applies: 1 hour at 37° C., ~10^6 cfu. On the procedure: as §1
For a further assay, the system named is Streptococcus pneumoniae. The assay is described as follows: antimicrobial assay on Streptococcus pneumoniae. The class given is cell-based. The method, then:
as §1
In order to see if a similar mechanism of action was found in other bacteria encoding heterologous proteins, the antimicrobial assay was carried out as described above, except using Streptococcus pneumoniae. […] The experiment was repeated by adding 70 μg of native Spy1542 in addition to 0.4 μM, 0.8 μM or 1.6 μM of LL-37. In this second experiment, 100% survival at 0.4 μM was noted. Therefore Spy1542 appears to be able to inhibit cathelicidin action also in heterologous systems

Assay [3] relates to Wild-type, ΔcrgR and ΔcrgR/Δspy1542-43 strains challenged with cathelicidin. The assay is described as follows: bacterial killing assay with purified Spy1542 added to the medium. The class given is cell-based, Streptococcus pyogenes. The following applies: different concentrations of purified Spy1542. The method, then:
The involvement of Spy1542 in the resistance mechanism to antimicrobial peptides was investigated further by cloning and expressing Spy1542 as a native protein. The expressed protein was purified by using a Q sepharose column followed by Cu chelating and finally, gel filtration (FIG. 7). The purified protein was successively used to study its effect when added to the medium in bacterial-killing assays.
Wild-type; ΔcrgR and ΔcrgR/Δspy1542-43 strains were challenged with 0.4 μM LL-37 or CRAMP, and added with different concentrations of the purified protein.
In addition, Spy1542 protein was also able to enhance in a dose dependent manner the survival rate of the ΔcrgR mutant (FIG. 8a).

The next assay deals with T1, LL-37 (Homo sapiens, UniProt P49913).
T1 construct: release the mature C-terminal antimicrobial peptide
T1 sequence (P49913 134-170 limits assumed): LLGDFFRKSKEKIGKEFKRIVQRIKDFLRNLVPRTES
Kind of assay: mass spectrometry of LL-37 in supernatant after Spy1542 treatment. The following applies: WT strain, 0.4 μM LL-37, after 30 minutes. The method, then:
Spy1542 was therefore used to treat the WT strain challenged with 0.4 μM LL-37 in a process similar to the bacterial killing assay described above. After 30 minutes, the bacteria were pelleted and the supernatant was analysed. It was discovered by mass spectrometry that the LL-37 in the supernatant was unmodified by the action of Spy1542 (FIG. 13).

Assay [4] has as its system bacteria challenged with LL-37. Kind of assay: pre-treatment of bacteria with Spy1542, washing, then LL-37 challenge. The class given is cell-based, Streptococcus pyogenes. The conditions noted are these: Spy1542 added, bacteria pelleted, washed, resuspended; then 0.4 μM LL-37. On the procedure: A further experiment was therefore carried out to confirm that the effect of Spy1542 was indirect. Spy1542 was added to the bacteria. The bacteria were then pelleted, washed and resuspended. 0.4 μM LL-37 was then added to the suspension.

In the case of `CC[C@H](C)[C@H](NC(=O)[C@H](CCCCN)NC(=O)[C@H](CCC(=O)O)NC(=O)[C@H](CCCCN)NC(=O)[C@H](CO)NC(=O)[C@H](CCCCN)NC(=O)[C@H](CCCNC(=N)N)NC(=O)[C@H](Cc1ccccc1)NC(=O)[C@H](Cc1ccccc1)NC(=O)[C@H](CC(=O)O)NC(=O)CNC(=O)[C@H](CC(C)C)NC(=O)[C@@H](N)CC(C)C)C(=O)NCC(=O)N[C@@H](CCCCN)C(=O)N[C@@H](CCC(=O)O)C(=O)N[C@@H](Cc1ccccc1)C(=O)N[C@@H](CCCCN)C(=O)N[C@@H](CCCNC(=N)N)C(=O)N[C@H](C(=O)N[C@H](C(=O)N[C@@H](CCC(N)=O)C(=O)N[C@@H](CCCNC(=N)N)C(=O)N[C@H](C(=O)N[C@@H](CCCCN)C(=O)N[C@@H](CC(=O)O)C(=O)N[C@@H](Cc1ccccc1)C(=O)N[C@@H](CC(C)C)C(=O)N[C@@H](CCCNC(=N)N)C(=O)N[C@@H](CC(N)=O)C(=O)N[C@@H](CC(C)C)C(=O)N[C@H](C(=O)N1CCC[C@H]1C(=O)N[C@@H](CCCNC(=N)N)C(=O)N[C@H](C(=O)N[C@@H](CCC(=O)O)C(=O)N[C@@H](CO)C(=O)O)[C@@H](C)O)C(C)C)[C@@H](C)CC)C(C)C)[C@@H](C)CC` [LL-37], the “amount of LL-37 localised on the bacterial surface” value in assay [1] was “WT strain had less LL-31 on the bacterial surface”. Also, the “concentration necessary to kill 50% of bacterial cells (LD50)” value in assay [2] is 0.28 µM; in the assay with GAS strain SF370 WT, 0.103 µM. In addition, the killing of bacteria entry in the assay on Streptococcus pneumoniae (increasing concentrations of LL-37) is on record as “shown to kill the bacteria”.

B1: Spy1542: Streptococcus pyogenes protein encoded by crgE (spy1542), cloned, expressed as native protein and purified; confers resistance to cathelicidins (protein)
chain: MESYITPKHQEACVAAIKQIVSYPSVCHEGENGTPFGQAIQDILEATLDLCQGLGFHTYIDPEGYYGYAELGDQKEVLAILCHLDVVPEGDRQLWKTDPFDCVEADGCLFGRGTQDDKGPTMMALFATKALIDAGVTFNKRIRFIFGTDEETLWRCMNRYNDVEEQATFGFAPDSSFPLTYAEKGLLQAKLVGKGSDKLSLEIGQAYNVVPARASYQGDKLEALQKELDKLGFEYVVKEGELTVYGLAQHAKDAPDGINAMIRLAKALVVLEPNKTLDFLANVIDEDGRALNIFGRIEDEPSGKLSFNAAGLTLTKDKAEIRLDIRIPVLADKEKLVQQLSQKAQEYGLTYEEFDYLAPLYVPLDSELVTTLLSVYRKKTGDQSPAQSSGGATFARTMKNCVAFGALFPDAVQTEHQENEHIVLADAYRAMDIYAEAIYRLTR
modifications: Streptococcus pyogenes
notes: Streptococcus pyogenes protein encoded by crgE (spy1542), cloned, expressed as native protein and purified; confers resistance to cathelicidins
For B1, the “inhibition of CRAMP bactericidal activity” value in assay [3] (0.4 μM CRAMP) is reported as “inhibited cathelicidin bactericidal activity in a dose-dependent fashion”. Also, the “inhibition of LL-37 action (number of colonies, survival rate)” value in assay [3] (0.4 μM LL-37) is recorded as “inhibits LL-37 action in a dose dependent manner”. For the same molecule, the “modification of LL-37 in the supernatant by Spy1542” value with LL-37 is reported as “unmodified”. Moreover, the survival in the assay on Streptococcus pneumoniae (70 μg native Spy1542 added with 0.4 μM LL-37) is given as 100%. The “protective effect against LL-37 after pre-treatment and washing” value in assay [4] was “protective effect of Spy1542 was maintained and that it was dose dependent”.

(Values after US20080131465A1, “Group a Streptococcus Crge Protein” (priority 2004, published 2008).)
